In article PMC2858264:

B1: rR-HPCDH1 (Xanthobacter versatilis) (protein)
chain: SRVAIVTGASSGNGLAIATRFLARGDRVAALDLSAETLEETARTHWHAYADKVLRVRADVADEGDVNAAIAATMEQFGAIDVLVNNAGITGNSEAGVLHTTPVEQFDKVMAVNVRGIFLGCRAVLPHMLLQGAGVIVNIASVASLVAFPGRSAYTTSKGAVLQLTKSVAVDYAGSGIRCNAVCPGMIETPMTQWRLDQPELRDQVLARIPQKEIGTAAQVADAVMFLAGEDATYVNGAALVMDGAYTAI
B2: rS-HPCDH1 (Xanthobacter versatilis) (protein)
chain: MLDAEVIAITGGAAGIGLAVAHAAIRAGARVALIDRDGACAQRAAAEFGAAAWGVGADVTDEAAITAAMAGAQRALGPLTGLVNNAGIAGFGSVHATEVETWSRIMAVNVTGTFLASKAALFGMLERGRGAIVNFGSVAGLVGIPTMAAYCAAKGAVVNLTRQMAADYSGRGIRVNVVCPGTVAGTDMGRQLLGTDCDPELEARRLAKYPMGRFGTPEDIAEAAVFLLSTKAAFVTGSVLAVDGGMTAI

Assays:
Experiment in all cases: purified protein
[1] = substrate: O=S(=O)(O)CCSCCO; assay type: biochemical, Xanthobacter versatilis; conditions: oxidation, 5 mM NAD+, pH 7.5, 30 °C
[2] = substrate: CC(=O)CSCCS(=O)(=O)O; assay type: biochemical, Xanthobacter versatilis; conditions: reduction, 0.17 mM NADH, pH 7.5, 30 °C
[3] = substrate: C[C@@H](O)CSCCS(=O)(=O)O; assay type: biochemical, Xanthobacter versatilis; conditions: oxidation, 10 mM NAD+, pH 7.5, 30 °C
[4] = substrate: C[C@H](O)CSCCS(=O)(=O)O; assay type: biochemical, Xanthobacter versatilis; conditions: oxidation, 10 mM NAD+, pH 7.5, 30 °C
[5] = substrate: CC(=O)CSCCS(=O)(=O)O; conditions: reduction, 0.17 mM NADH, pH 7.5, 30 °C
[6] = substrate: C[C@@H](O)CSCCS(=O)(=O)O; conditions: oxidation, 10 mM NAD+, pH 7.5, 30 °C
[7] = substrate: C[C@H](O)CSCCS(=O)(=O)O; conditions: oxidation, 10 mM NAD+, pH 7.5, 30 °C

Row | Protein | Km [1] [µM] | Km [2] [µM] | Km [3] [µM] | kcat [3] [s⁻¹] | kcat/Km [3] [M⁻¹ s⁻¹] | Km [4] [µM] | kcat [4] [s⁻¹] | kcat/Km [4] [M⁻¹ s⁻¹] | Km [5] [µM] | kcat [5] [s⁻¹] | kcat/Km [5] [M⁻¹ s⁻¹] | Km [6] [µM] | kcat [6] [s⁻¹] | kcat/Km [6] [M⁻¹ s⁻¹] | Km [7] [µM] | kcat [7] [s⁻¹] | kcat/Km [7] [M⁻¹ s⁻¹]
1 | B1 | 960 ± 100 | 68 ± 10 | 96 ± 7 | 48 ± 1 | 500000 | 220 ± 70 | 0.12 ± 0.01 | 530 | – | – | – | – | – | – | – | – | –
2 | B2 | – | – | – | – | – | – | – | – | 240 ± 10 | 20 | 83000 | 5200 ± 300 | 2.4 | 460 | 220 ± 20 | 28 | 130000
